Data as given in patent US20080206254A1 (LIFE SCIENCES RESEARCH PARTNERS VZW, published 2008).

What was measured:
[1] = target: T1, A2 domain residues 379-546 of FVIII with mutation R484A (human, UniProt P00451 398-565, 35S-methionine labelled); test: immunoprecipitation of 35S-labelled polypeptide on BOIIB2-Protein A Sepharose
T1 construct: the text lists R484A; Y487A; not shown: cmyc (9E10) tag
T1 sequence: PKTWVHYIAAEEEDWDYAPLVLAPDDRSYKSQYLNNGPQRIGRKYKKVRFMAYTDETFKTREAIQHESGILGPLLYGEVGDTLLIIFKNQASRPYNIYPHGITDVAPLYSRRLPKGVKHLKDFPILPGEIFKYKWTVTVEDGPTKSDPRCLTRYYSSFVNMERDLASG
Protocol: (§1) For fragments of FVIII of less than 15 amino acids a tag sequence was added including ubiquitin and/or T7 for recognition by specific anti-tag antibodies, together with a complementary sequence of cysteines for S labeling. Polypeptide encoding FVIII fragments were produced in TNT coupled Reticulocyte Lysate Systems (Promega) according to manufacturer's instructions. Immunoprecipitation of transcribed genes was carried out as follows. Dilutions of samples containing specific antibodies were mixed to 40 μl of protein A Sepharose (Pharmacia) in 500 μl of an appropriate buffer and the mixture gently rocked for 1 hour at 4° C. Unbound antibodies are eliminated by a series of centrifugation and washings. The complex of antibody-protein A Sepharose is resuspended in 300 μl of buffer supplemented by 3 μl of in-vitro L-(³⁵S) methionine-labeled FVIII polypeptides for an incubation at 4° C. for 2 hours. Bound antigen/antibody complexes are eluted from the beads by boiling for 3 minutes in 30 μl of denaturing sample buffer and the radioactivity counted. A second aliquot is analyzed by SDS-PAGE and visualized by autoradiography. […] This system includes a combined transcription-translation provided by rabbit reticulocytes. […] Polypeptides are radiolabeled by addition of ³⁵S-methionine in the reaction mixture. BOIIB2 antibody is incubated with a Protein-A Sepharose, washed and resuspended before addition of one of the radiolabeled polypeptides. The suspension is incubated for 90 minutes at room temperature, washed and the labeled polypeptide eluted from Sepharose beads by addition of a sodium-dodecylsulfate containing buffer.

[2] = target: T2, A2 domain residues 379-546 of FVIII with mutation Y487A (human, UniProt P00451 398-565, 35S-methionine labelled); test: as above
T2 construct: Read as one of four single mutants; see the note of m4; not shown: cmyc (9E10) tag
T2 sequence: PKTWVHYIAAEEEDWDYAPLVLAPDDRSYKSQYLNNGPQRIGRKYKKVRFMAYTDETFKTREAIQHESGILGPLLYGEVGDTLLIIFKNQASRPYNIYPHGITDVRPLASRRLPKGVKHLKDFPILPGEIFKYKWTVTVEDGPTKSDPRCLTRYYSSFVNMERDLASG
Protocol: as §1

[3] = target: T3, A2 domain residues 379-546 of FVIII with mutation P492A (human, UniProt P00451 398-565, 35S-methionine labelled); test: as above
T3 construct: Read as one of four single mutants; see the note of m4; not shown: cmyc (9E10) tag
T3 sequence: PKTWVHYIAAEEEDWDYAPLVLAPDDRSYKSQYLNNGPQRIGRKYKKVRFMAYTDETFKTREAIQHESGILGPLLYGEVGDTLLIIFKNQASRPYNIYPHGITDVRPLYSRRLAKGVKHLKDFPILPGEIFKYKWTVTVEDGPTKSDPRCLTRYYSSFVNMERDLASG
Protocol: as §1

[4] = target: T4, A2 domain residues 379-546 of FVIII with mutation R489A (human, UniProt P00451 398-565, 35S-methionine labelled); test: as above
T4 construct: Read as one of four single mutants; see the note of m4; not shown: cmyc (9E10) tag
T4 sequence: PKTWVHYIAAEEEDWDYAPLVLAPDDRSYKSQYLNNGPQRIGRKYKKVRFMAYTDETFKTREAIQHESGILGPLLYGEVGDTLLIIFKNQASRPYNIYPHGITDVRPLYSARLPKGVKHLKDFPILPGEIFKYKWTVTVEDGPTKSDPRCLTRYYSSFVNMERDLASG
Protocol: as §1

[5] = target: human Factor VIII (FVIII) (human) (UniProt P00451); test: cell-based or functional assay
Sequence of human Factor VIII (FVIII) (human) (P00451 20-2351): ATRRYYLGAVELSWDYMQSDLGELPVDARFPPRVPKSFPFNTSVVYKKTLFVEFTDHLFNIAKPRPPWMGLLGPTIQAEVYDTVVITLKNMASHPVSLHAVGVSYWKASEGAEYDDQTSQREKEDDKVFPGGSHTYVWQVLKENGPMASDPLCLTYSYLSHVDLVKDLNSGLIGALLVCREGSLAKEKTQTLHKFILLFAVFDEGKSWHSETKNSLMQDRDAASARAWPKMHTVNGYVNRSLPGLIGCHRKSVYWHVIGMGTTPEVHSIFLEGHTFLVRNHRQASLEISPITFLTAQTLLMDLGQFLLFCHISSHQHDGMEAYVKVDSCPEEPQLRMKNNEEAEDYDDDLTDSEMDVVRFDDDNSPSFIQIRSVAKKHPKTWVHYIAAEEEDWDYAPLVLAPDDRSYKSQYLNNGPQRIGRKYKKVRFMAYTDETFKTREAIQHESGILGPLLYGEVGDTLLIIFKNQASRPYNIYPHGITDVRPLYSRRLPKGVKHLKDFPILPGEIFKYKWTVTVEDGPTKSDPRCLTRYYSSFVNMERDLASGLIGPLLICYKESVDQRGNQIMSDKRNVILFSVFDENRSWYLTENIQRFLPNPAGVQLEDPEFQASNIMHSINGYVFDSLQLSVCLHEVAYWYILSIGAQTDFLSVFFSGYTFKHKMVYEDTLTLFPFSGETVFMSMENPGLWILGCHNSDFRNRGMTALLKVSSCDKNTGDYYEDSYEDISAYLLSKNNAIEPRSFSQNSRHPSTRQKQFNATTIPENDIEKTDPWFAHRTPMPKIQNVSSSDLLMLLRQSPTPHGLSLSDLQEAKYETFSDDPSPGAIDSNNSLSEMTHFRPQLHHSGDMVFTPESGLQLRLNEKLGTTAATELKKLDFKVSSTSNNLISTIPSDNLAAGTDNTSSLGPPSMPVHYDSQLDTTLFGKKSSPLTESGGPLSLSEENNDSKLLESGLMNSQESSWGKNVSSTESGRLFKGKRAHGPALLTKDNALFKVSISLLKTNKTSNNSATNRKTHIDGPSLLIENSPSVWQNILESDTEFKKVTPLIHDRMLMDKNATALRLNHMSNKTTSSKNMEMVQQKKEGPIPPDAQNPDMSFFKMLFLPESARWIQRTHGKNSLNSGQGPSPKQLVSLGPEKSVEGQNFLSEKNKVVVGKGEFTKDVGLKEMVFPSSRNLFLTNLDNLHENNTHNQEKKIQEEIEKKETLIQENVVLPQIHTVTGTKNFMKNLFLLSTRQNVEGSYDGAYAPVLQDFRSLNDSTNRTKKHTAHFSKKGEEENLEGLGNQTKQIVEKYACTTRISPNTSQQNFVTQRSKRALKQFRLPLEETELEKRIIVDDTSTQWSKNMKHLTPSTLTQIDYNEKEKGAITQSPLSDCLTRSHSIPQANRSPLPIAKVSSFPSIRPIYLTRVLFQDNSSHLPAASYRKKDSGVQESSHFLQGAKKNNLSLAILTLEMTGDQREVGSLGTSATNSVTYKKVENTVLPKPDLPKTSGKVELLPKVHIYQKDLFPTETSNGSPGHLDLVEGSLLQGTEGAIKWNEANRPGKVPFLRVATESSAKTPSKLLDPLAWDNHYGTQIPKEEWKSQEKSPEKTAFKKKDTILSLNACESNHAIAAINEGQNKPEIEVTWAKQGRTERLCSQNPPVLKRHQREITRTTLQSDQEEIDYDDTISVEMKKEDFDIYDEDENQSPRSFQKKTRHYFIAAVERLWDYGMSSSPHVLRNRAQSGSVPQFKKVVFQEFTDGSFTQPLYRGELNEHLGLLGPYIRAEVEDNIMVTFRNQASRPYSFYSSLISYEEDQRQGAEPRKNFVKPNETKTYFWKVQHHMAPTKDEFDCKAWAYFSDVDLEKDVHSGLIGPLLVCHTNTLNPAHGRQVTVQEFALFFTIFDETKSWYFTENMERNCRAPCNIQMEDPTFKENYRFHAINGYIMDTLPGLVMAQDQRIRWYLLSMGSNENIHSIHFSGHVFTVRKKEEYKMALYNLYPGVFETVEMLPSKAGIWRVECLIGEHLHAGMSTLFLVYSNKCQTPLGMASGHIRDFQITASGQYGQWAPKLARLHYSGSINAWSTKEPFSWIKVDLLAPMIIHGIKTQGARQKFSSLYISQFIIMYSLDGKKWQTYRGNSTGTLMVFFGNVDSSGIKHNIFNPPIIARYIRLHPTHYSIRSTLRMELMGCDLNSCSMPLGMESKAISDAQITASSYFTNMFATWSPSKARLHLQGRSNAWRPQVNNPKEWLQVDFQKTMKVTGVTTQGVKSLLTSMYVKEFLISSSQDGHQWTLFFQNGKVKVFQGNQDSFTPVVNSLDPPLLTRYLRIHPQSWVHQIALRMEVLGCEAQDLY

[6] = target: human Factor VIII (FVIII) (human) (UniProt P00451); test: SPR (BIAcore), BOIIB2 immobilised on a CM5 chip, FVIII in HBS as analyte

B1: human monoclonal antibody BOIIB2, produced by the cell line deposited under accession number LMBP 6422CB at the BCCM (antibody, V domains shown)
VH: QVQLQESGPGLVKPSETLSLTCTVSGDSISDYYWSWIRQPPGKGLEWIGYFFYSGGSNYNPSLKSRVTMSVDTSKNQFSLKLGSVTAADTAVYYCARSQLRYYLDVWGQGTTVTVSS
VL: EIVLTQSPGTLSLSPGERATLSCRASQSVDSNYLAWYQQKPGQAPRVVIYGASNRATGIPDRFSGSGSGTEFTLTISRLDPEDFAVYYCQQYGSFFGQGTRLEIK
notes: VH4 (DP-71)/JH6c, VkappaIII/Jkappa5; also called BIIIB2
binding result [1]: no binding | binding result [2]: no binding | binding result [3]: no binding | binding result [4]: no binding | Percentage of inhibition of FVIII in a chromogenic assay (thrombin-activated FVIII as cofactor of factor IXa in the conversion of factor X to factor Xa) [5]: 99% | koff [6]: 1e-08 s⁻¹
